Test results reported in the supplement of paper PMC7877785.
± gives the uncertainty stated by the source.

Test: self-splicing fitness, log relative to wild type (ln ratio); higher = more splicing; Tetrahymena group I intron in knt gene, E. coli kanamycin selection, DiMSum; sequences stand for … in CUCUCU…GGAGGGAAAAGUUAUCAGGCAUGCACCUGGUAGCUAGUCUUUAAACCAAUAGAUUGCAUCGGUUUAAAAGGCAAGACCGUCAAAUUGCGGGAAAGGGGUCAACAGCCGUUCAGUACCAAGUCUCAGGGGAAACUUUGAGAUGGCCUUGCAAAGGGUAUGGUAAUAAGCUGACGGACAUGGUCCUAACCACGCAGCCAAGUCCUAAGUCAACAGAUCUUCUGUUGAUAUGGAUGCAGUUCACAGACUAAAUGUCGGUCGGGGAAGAUGUAUUCUUCUCAUAAGAUAUAGUCGGACCUCUCCUUAAUGGGAGCUAGCGGAUGAAGUGAUGCAACACUGGAGCCGCUGGGAACUAAUUUGUAUGCGAAAGUAUAUUGAUUAGUUUUGGAGUACUCGUGGUCG
In short: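 Six replicate transformations of E. coli BL21(DE3) with a pET-22b(+) library were grown overnight at 37°C or 30°C. The library randomised all eight P1ex-region intron nucleotides, the intron lying in the knt kanamycin-resistance gene, and plates were LB agar with or without 25 μg/mL kanamycin plus 100 μg/mL carbenicillin, 50 μM IPTG and 0.2% rhamnose. Pooled colonies were amplicon-sequenced on an Illumina HiSeq 2500, and fitness is the DiMSum error-weighted combination of wild-type-normalised replicate fold changes, kanamycin versus none.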

Sequence	self-splicing fitness (ln) (30 °C)	self-splicing fitness (ln) (37 °C)
UUAUAGCAAUAUUACGCUAU	-3.51 ± 0.44	-4.04 ± 0.46
UUAUAGCAAUAUUACGCUGG	-1.35 ± 0.14	-0.828 ± 0.12
UUAUAGCAAUAUUACGCUUC	-3.49 ± 0.32	-3.42 ± 0.43
UUAUAGCAAUAUUACGGAGG	-1.68 ± 0.31	-2.37 ± 0.32
UUAUAGCAAUAUUACGGAUA	-2.21 ± 0.32	-0.955 ± 0.19
UUAUAGCAAUAUUACGGGAA	-1.59 ± 0.29	-1.26 ± 0.28
UUAUAGCAAUAUUACGGGCG	-1.4 ± 0.15	-1 ± 0.2
UUAUAGCAAUAUUACGGUCA	-0.871 ± 0.13	-0.305 ± 0.17
UUAUAGCAAUAUUACGGUGG	-0.966 ± 0.11	-0.924 ± 0.12
UUAUAGCAAUAUUACGUAAG	-1.38 ± 0.08	-0.386 ± 0.11
UUAUAGCAAUAUUACGUAUA	-2.29 ± 0.15	-1.42 ± 0.13
UUAUAGCAAUAUUACGUAUG	-1.03 ± 0.12	-0.187 ± 0.15
UUAUAGCAAUAUUACGUGAG	-1.2 ± 0.087	-0.672 ± 0.12
UUAUAGCAAUAUUACGUGGC	-3.14 ± 0.37	-2.45 ± 0.39
UUCAAGCAAUAUUACGAACA	-2.07 ± 0.2	-0.752 ± 0.13
UUCAAGCAAUAUUACGACUC	-1.98 ± 0.24	-0.791 ± 0.22
UUCAAGCAAUAUUACGAGCG	-1.3 ± 0.087	-0.359 ± 0.099
UUCAAGCAAUAUUACGAGGG	-3.56 ± 0.23	-1.91 ± 0.17
UUCAAGCAAUAUUACGAUAC	-2.1 ± 0.17	-2.58 ± 0.48
UUCAAGCAAUAUUACGAUCC	-2.66 ± 0.27	-1.55 ± 0.29
UUCAAGCAAUAUUACGAUCU	-1.59 ± 0.092	-0.996 ± 0.089
UUCAAGCAAUAUUACGAUGU	-2.21 ± 0.13	-1.31 ± 0.16
UUCAAGCAAUAUUACGCAUG	-2.8 ± 0.13	-1.7 ± 0.16
UUCAAGCAAUAUUACGCUAU	-2.4 ± 0.15	-1.63 ± 0.16
UUCAAGCAAUAUUACGCUCU	-1.37 ± 0.17	0.387 ± 0.21

Sequence	self-splicing fitness (ln) (30 °C)	self-splicing fitness (ln) (37 °C)
UUCAAGCAAUAUUACGGACC	-2.45 ± 0.25	-2.97 ± 0.21
UUCAAGCAAUAUUACGGUAG	-0.693 ± 0.096	-0.128 ± 0.13
UUCAAGCAAUAUUACGGUCC	-1.46 ± 0.25	-2.3 ± 0.42
UUCAAGCAAUAUUACGUACA	-0.901 ± 0.11	-0.478 ± 0.13
UUCAAGCAAUAUUACGUAUU	-3.82 ± 0.17	-2.66 ± 0.16
UUCAAGCAAUAUUACGUCUU		-3.54 ± 0.33
UUCAAGCAAUAUUACGUGCC	-0.891 ± 0.15	-0.528 ± 0.17
UUCAAGCAAUAUUACGUUCC		-1.79 ± 0.34
UUCAAGCAAUAUUACGUUGG	-2.28 ± 0.17	-1.66 ± 0.24
UUCAAGCAAUAUUACGUUUC	-3.02 ± 0.13	-2.25 ± 0.18
UUCCAGCAAUAUUACGAACC	-2.74 ± 0.42	0.108 ± 0.43
UUCCAGCAAUAUUACGAGCA	-1.08 ± 0.098	-0.767 ± 0.13
UUCCAGCAAUAUUACGAUGA	-0.211 ± 0.067	0.0453 ± 0.072
UUCCAGCAAUAUUACGAUUG	-2.03 ± 0.12	-1.47 ± 0.16
UUCCAGCAAUAUUACGCCCU		-2.93 ± 0.49
UUCCAGCAAUAUUACGCGAG	-0.566 ± 0.082	-0.29 ± 0.082
UUCCAGCAAUAUUACGCUCA	-0.327 ± 0.068	0.143 ± 0.089
UUCCAGCAAUAUUACGGAAU	-3.81 ± 0.26	-2.77 ± 0.28
UUCCAGCAAUAUUACGGGCG	-0.245 ± 0.081	0.254 ± 0.097
UUCCAGCAAUAUUACGGUAC	-4.17 ± 0.24	-2.6 ± 0.23
UUCCAGCAAUAUUACGUAUG	-3.02 ± 0.13	-1.38 ± 0.14
UUCCAGCAAUAUUACGUGCU	-4.4 ± 0.34	-3.29 ± 0.29
UUCCAGCAAUAUUACGUUUU	-3.74 ± 0.14	-2.65 ± 0.16
UUCGAGCAAUAUUACGAAGA	-2 ± 0.29	-1.36 ± 0.25
UUCGAGCAAUAUUACGAGGG	-3.94 ± 0.3	-3.12 ± 0.37

Sequence	self-splicing fitness (ln) (30 °C)	self-splicing fitness (ln) (37 °C)
UUCGAGCAAUAUUACGAUCC	-2.6 ± 0.49	
UUCGAGCAAUAUUACGAUGU	-3.71 ± 0.46	-2.7 ± 0.25
UUCGAGCAAUAUUACGCACA	-1.76 ± 0.25	-1.45 ± 0.28
UUCGAGCAAUAUUACGCUCG	-1.64 ± 0.25	-3.36 ± 0.42
UUCGAGCAAUAUUACGCUGA	-2.66 ± 0.45	-1.89 ± 0.44
UUCGAGCAAUAUUACGCUGG	-0.924 ± 0.28	-1.02 ± 0.42
UUCGAGCAAUAUUACGCUUG	-3.26 ± 0.41	
UUCGAGCAAUAUUACGGCAG	-2.05 ± 0.17	-1.39 ± 0.19
UUCGAGCAAUAUUACGGCGA	-2.23 ± 0.17	-0.638 ± 0.18
UUCGAGCAAUAUUACGGGAA	-1.74 ± 0.16	-0.981 ± 0.15
UUCGAGCAAUAUUACGGGUG	-1.78 ± 0.074	-1.42 ± 0.086
UUCGAGCAAUAUUACGGUGU		-3.35 ± 0.42
UUCGAGCAAUAUUACGUAGG	-2.9 ± 0.2	-1.52 ± 0.19
UUCGAGCAAUAUUACGUCUG	-2.57 ± 0.24	-1.65 ± 0.22
UUCGAGCAAUAUUACGUGGC	-1.49 ± 0.48	
UUCGAGCAAUAUUACGUUCA	-1.99 ± 0.13	-1.15 ± 0.13
UUCUAGCAAUAUUACGAGAU	-3.95 ± 0.33	-2.67 ± 0.34
UUCUAGCAAUAUUACGCAAG	-2.26 ± 0.35	-0.437 ± 0.34
UUCUAGCAAUAUUACGCUAU	-4.08 ± 0.29	-1.42 ± 0.15
UUCUAGCAAUAUUACGCUGG	-4.38 ± 0.46	
UUCUAGCAAUAUUACGGACG	-1.14 ± 0.15	0.26 ± 0.15
UUCUAGCAAUAUUACGGAGA	-2.45 ± 0.29	-2.41 ± 0.49
UUCUAGCAAUAUUACGGGCA	-0.323 ± 0.12	-0.0935 ± 0.12
UUCUAGCAAUAUUACGGGCC		-2.38 ± 0.45
UUCUAGCAAUAUUACGGGCG	-0.382 ± 0.12	-0.891 ± 0.12

Sequence	self-splicing fitness (ln) (30 °C)	self-splicing fitness (ln) (37 °C)
UUCUAGCAAUAUUACGGGUC	-3.23 ± 0.32	-1.94 ± 0.23
UUCUAGCAAUAUUACGGGUU	-2.34 ± 0.17	-1.93 ± 0.24
UUCUAGCAAUAUUACGGUGC	-2.46 ± 0.4	-2.96 ± 0.38
UUCUAGCAAUAUUACGUAAA	-1.56 ± 0.26	-0.54 ± 0.23
UUCUAGCAAUAUUACGUAAU	-3.08 ± 0.15	-1.88 ± 0.17
UUCUAGCAAUAUUACGUACU	-3.29 ± 0.36	-2.97 ± 0.47
UUCUAGCAAUAUUACGUCGC	-3.18 ± 0.44	
UUCUAGCAAUAUUACGUCUC	-3.85 ± 0.37	-2.23 ± 0.25
UUCUAGCAAUAUUACGUGCU	-3.37 ± 0.24	-2.11 ± 0.24
UUCUAGCAAUAUUACGUUAA	-2.15 ± 0.23	-1.32 ± 0.18
UUCUAGCAAUAUUACGUUAC	-2.41 ± 0.23	-2.42 ± 0.29
UUCUAGCAAUAUUACGUUGC	-4.72 ± 0.39	-2.64 ± 0.22
UUCUAGCAAUAUUACGUUUG	-3.49 ± 0.35	-2.66 ± 0.4
UUGAAGCAAUAUUACGAACU	-1.61 ± 0.21	0.568 ± 0.2
UUGAAGCAAUAUUACGAAGU	-3.34 ± 0.19	-1.69 ± 0.21
UUGAAGCAAUAUUACGACAU	0.0991 ± 0.013	0.28 ± 0.033
UUGAAGCAAUAUUACGACGA	0.302 ± 0.12	0.04 ± 0.14
UUGAAGCAAUAUUACGAGAC	-3.37 ± 0.17	-2.5 ± 0.19
UUGAAGCAAUAUUACGAUCA	-0.786 ± 0.1	0.00258 ± 0.15
UUGAAGCAAUAUUACGAUCC		-1.38 ± 0.38
UUGAAGCAAUAUUACGAUGC	-4.76 ± 0.39	-1.58 ± 0.24
UUGAAGCAAUAUUACGCAAC	-1.97 ± 0.25	-2.43 ± 0.39
UUGAAGCAAUAUUACGCGUC	-3.32 ± 0.33	-1.02 ± 0.33
